Assay: soluble on expression in E. coli; label from the status in PepcDB or PDB records

| Sequence | soluble on expression in E. coli |
| --- | --- |
| GMSTPSPALFFNTVNAYQRSAAIKAAVELNVFTAISQGIESSQSLAQKCQTSERGMRMLCDYLVIIGFMTKQAEGYRLTSDSAMFLDRQSKFYVGDAIEFLLSPMITNGFNDLTAAVLKGGTAISSEGTLSPEHPVWVQFAKAMSPMMANPAQLIAQLVNENKIEPLKVLDISASHGLFGIAVAQHNPNAEIFGVDWASVLEVAKENARIQGVASRYHTIAGSAFEVDYGNDYDLVLLPNFLHHFDVATCEQLLRKIKTALAVEGKVIVFDFIPNSDRITPPDAAAFSLVMLATTPNGDAYTFAEYESMFSNAGFSHSQLHSLPTTQQQVIVAYK | soluble |
| MSLNRIFDAHCHIIDPQFPLIANNGYLPDPFGVGDYLATVQPLGVQGGAVVSGSFQGFDQGYLLQALRLLGPGFVGVTQLPASVTDTELDTLNAAGVRALRFNLKRGGSEQLDQLEALAVRVRERAGWHSELYIDSRELAEIETRLLKLPAISIDHLGLSAEGLPVVLRLAERGVRVKACGFGRVDFPVREALRDIHAANPNALMFGTDLPSTRAPRPFQPDDIELLIDALGEGGARQALWDNAAEFYREGHHHHHH | not soluble |
| MFSVRRYRHKRNSLNIDTREITLEPADNARLLSLCGPFDDNIKQLERRLGIEINRRDNHFKLTGRPICVTAATDILRSLYVDTAPMRGQTQDIEPEQIHLAIKEARVLEQSAESVPDYGKAINIKTKRGVIKPRTPNQAQYIANILDHDITFGVGPAGTGKTYLAVAAAVDALERQEIRRILLTRPAVEAGEKLGFLPGDLSQKVDPYLRPLYDALFEMLGFEKVEKLIERNVIEVAPLAYMRGRTLNDAFIILDESQNTTIEQMKMFLTRIGFNSKAVITGDVTQIDLPRNTKSGLRHAIEVLAEVDEISFNFFHSEDVVRHPVVARIVNAYEAWEEAEQKRKAALAAERKREAQEQEQK | not soluble |
| MAHHHHHHHRSAAGTIWEFDGGACGARTALVKVDRVDRRYQDLVTRGFNGRFRGRPDVVYVVHTADQVVDAVNQAMAAGQRIAVRSGGHCFEGFVDDPAVRAVIDMSQMRQVFYDSGKRAFAVEPGATLGETYRALYLDWGVTIPAGVCPQVGVGGHVLGGGYGPLSRRDGVVADHLYAVEVVVVDASGRARKVVATSAADDPNRELWWAHTGGGGGNFGIVTRYWFRTPGATGTDPSQLLPKAPTSTLRHIVTWDWSALTEEAFTRIIDNHGAWHQSNSAAGTPYASMHSVFYLNSRAAGQILLDIQIDGGLDGAEALLNDFVAAVNEGTGVEPAVQRSTEPWLRATLANKFDTGGFDRTKSKGAYLRKPWTAAQAATLYRHLSADSQVWGEVSLYSYGGKVNSVPETATATAQRDSIIKVWMSATWMDPAHDDANLAWIREIYREIFATTGGVPVPDDRTEGTFINYPDVDLVDERWNTSGVPWYTLYYKGNYPRLQKVKARWDPRDVFRHALSVRPPG | soluble |
| MLPKYEQIKQDLLREIKNHTFIPGDKFYSEADIKRKYAVSSITAVKALNELTSAGYLYRIQGKGTFVSKSKVSQNVKFSDIELHSLDSEKVKVLSIEEDNQAEILKELGLPANASYYRIKRVRYSEDTPFLVHITHLPKKLVKEPLSKDLTAYASVYERVRKDFSVDLFSLASVETNEIVFPEDAELLNLLQLSFREPAVKQVKHSYLADGSVAEYIISYKHWKYFKTKIEVEAE | not soluble |
| MRSAIAAPILFLLVSFFVQECESVGFAPELYCGLENCYDVLEVNREEFDKQKLAKAYRALARKHHPDRVKNKEEKLLAEERFRVIATAYETLKDDEAKTNYDYYLDHPDQRFYNYYQYYRLRAAPKVDL | not soluble |
| MGSDKIHHHHHHMSSNRCDDCHPAGIDDANRQPRLETAAKGGGEPAPSTANLPDAAHLPGGRIRIGISSCLLGNPVRFDGGHKFDPWVVNVLGAYLDFVPVCPEVECGMGIPREALRLVGDPSAPRLVTVKHGEDWTDRMRAWAERRVAELEGEGLCGYIFKRASPSSGMERVKVYPEFDPATGKSGGVPVQKGVGMFARAFIERFPLLPVEEEGRLNDPDLRENFIERLFVMRRWRQLLDDGLDTGGLVAFHTRHKLLMLAHSPQHYRTMGKLVAQAATYPRDELREAYQRLLMEGLRLRATPAKHVNVLQHIMGYFRKQLTPDEKQEMLEQIDLYRRALVPLVVPVTLLNHYVRKYGEKYLAGQFYLNPHPVELKLRNHV | not soluble |
| MVFMEENKKYRILGTLLYYVLRIISSTLKIEIVNKYGIDMQRPHIYGFWHSKLFITPIFFRNVEKKLAMSSPTKDGELISVPLEKMGYILVRGSSDKNQISSTISLLKYLKKGYSIGTPLDGPKGPKEKPKKGLLYLSQKTSVPLVPVGISYSKKWILKKTWDQFEIPKPFSKVKIFLGEPILIDDDEDLDKYTEIVKNGINSLNNQIEFLEHHHHHH | not soluble |

From the DeepSol protein solubility set
